According to US20260184782A1 (TWIST BIOSCIENCE, published 2026):

T1: human TIGIT-Fc (human, UniProt Q495A1 22-141, limits assumed)
T1 construct: not shown: Fc; not described
T1 sequence (looked up): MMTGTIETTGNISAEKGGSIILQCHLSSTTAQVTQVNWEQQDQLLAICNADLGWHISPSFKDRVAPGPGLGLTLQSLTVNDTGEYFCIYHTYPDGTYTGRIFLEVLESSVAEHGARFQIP


These binders were tested against T1, human TIGIT-Fc (assay: CD155 competition ELISA, single point; further: test concentration or dose not given here).
Description: TIGIT/CD155 inhibition of VHH-Fcs were assessed using an ELISA assay (Table 10B). Briefly, human TIGIT-Fc was coated on a plate & then incubated with VHH-Fcs and human CD155-biotin. Bound CD155-biotin was detected using a streptavidin-HRP conjugate visualized with TMB. Strong inhibitors from the single point screen were titrated to determine EC50 (Table 10C).

OD (450 nm) | Binder
0.423 OD | TIGIT-SC146 (Fc fusion, VHH-Fc) VHH: EVQLVESGGGLVQPGGGLRLSCAASGFTLENNMMGWFRQAPGKEREFVAAISASGTLRAYADSVKGRFTISADNSKNTAYLQMNSLKPEDTAVYYCAKGGQAGPMAFYFDYWGQGTLVTVSS
0.686 OD | TIGIT-SC144 (Fc fusion, VHH-Fc) VHH: EVQLVESGGGLVQPGGSLRLSCAASGFTLENNMMGWFRQAPGKEREFVAAISPSGTLRAYADSVKGRFTISADNSKNTAYLQMNSLKPEDTAVYYCAGIHDSGVPLGNWGQGTLVTVSS
0.679 OD | TIGIT-SC169 (Fc fusion, VHH-Fc) VHH: EVQLVESGGGLVQPGGSLRLSCAASGFTLNDYAMGWFRQAPGKERELVAWIARYDGSTLYADSVKGRFTISADNSKNTAYLQMNSLKPEDTAVYYCTTELRWELQQPDYWGQGTLVTVSS
0.279 OD | TIGIT-SC167 (Fc fusion, VHH-Fc) VHH: EVQLVESGGGLVQPGGSLRLSCAASGRTFSFMGWFRQAPGKEREWVASVLRGGYTWYADSVKGRFTISADNSKNTAYLQMNSLKPEDTAVYYCAREGSGYASDYWGQGTLVTVSS
0.52 OD | TIGIT-SC148 (Fc fusion, VHH-Fc) VHH: EVQLVESGGGLVQPGGSLRLSCAASGDIGSINAMGWFRQAPGKEREFVAGIWRSGNLKAYADSVKGRFTISADNSKNTAYLQMSSLKPEDTAVYYCARGNIVVVPAAFVIWFDPWGQGTLVTVSS
0.633 OD | TIGIT-SC141 (Fc fusion, VHH-Fc) VHH: EVQLVESGGGLVQPGGSLRLSCAASGNAFSSSVMGWFRQAPGKEREFVAGIWRSGSLKAYADSVKGRFTISADNSKNTAYLQMNSLRPEDTAVYYCARAYVGMTTVTFDHWGQGTLVTVSS
0.69 OD | TIGIT-SC142 (Fc fusion, VHH-Fc) VHH: EVQLVESGGGLVQPGGSLRLSCAASGFSFDRWAMGWFRQAPGKEREFVAAIGWSGNLKAYADSVKGRFTISADNSKNTAYLQMNSLKPEDTAVYYCASGDGYSMDYFDPWGQGTLVTVSS
0.708 OD | TIGIT-SC140 (Fc fusion, VHH-Fc) VHH: EVQLVESGGGLVQPGGSLRLSCAASGNTFSGGFTFDRSWMGWFRQAPGKEREWVASVLRGGYTWYADSVKGRFTISADNSKNTAYLQMNSLKPEDTAVYYCAGDRYYDFWSGPNSGDYWGQGTLVTVSS
0.639 OD | TIGIT-SC180 (Fc fusion, VHH-Fc) VHH: EVQLVESGGGLVQPGGSLRLSCAASGFTLNDYAMGWFRQAPGKERELVAWIARYDGSTLYADSVKGRFTISADNSKNTAYLQMNSLKPEDTAVYYCASEVASGETDYWGQGTLVTVSS
0.532 OD | TIGIT-SC174 (Fc fusion, VHH-Fc) VHH: EVQLVESGGGLVQPGGSLRLSCAASGFLFDSYAMGWFRQAPGKEREFVAAISWSGGSTYYADSVKGRFTISADNSKNTAYLQMNSLKPEDTAVYYCTTDALRFLEWPWWGQGTLVTVSS
0.554 OD | TIGIT-SC181 (Fc fusion, VHH-Fc) VHH: EVQLVESGGGLVQPGGSLRLSCAASGFTLSSNWMGWFRQAPGKEREFVASVLRGGYTWYADSVKGRFTISADNSKNTAYLQMNSLKPEDTAVYYCARDAYYYGLWGQGTLVTVSS
0.51 OD | TIGIT-SC139 (Fc fusion, VHH-Fc) VHH: EVQLVESGGGLVQPGGSLRLSCAASGFTLENNMMGWFRQAPGKEREFVAAISRSGTLKAYADSVKGRFTISADNSKNTAYLRMNSLKPEDTAVYYCAGLTSGGAFSYYWGQGTLVTVSS
0.451 OD | TIGIT-SC161 (Fc fusion, VHH-Fc) VHH: EVQLVESGGGLVQPGGSLRLSCAASGFTFSPSWMGWFRQAPGKEREWVASVLRGGYTWYADSVKGRFTISADNSKNTAYLQMNSLKPEDTAVYYCTTDRAIGVRPLFDHWGQGTLVTVSS
0.533 OD | TIGIT-SC190 (Fc fusion, VHH-Fc) VHH: EVQLVESGGGLVQPGGSLRLSCAASGFTFDRSWMGWFRQAPGKEREWVASVLRGGYTWYADSVKGRFTISADNSKNTAYLQMNSLKPEDTAVYYCVTDVGAPDYWGQGTLVTVSS
0.57 OD | TIGIT-SC176 (Fc fusion, VHH-Fc) VHH: EVQLVESGGGLVQPGGSLRLSCAASGFTFSPSWMGWFRQAPGKEREWVASVLRGGYTWYADSVKGRFTISADNSKNTAYLQMNSLKPEDTAVYYCVHEDSVAAHFDFWGQGTLVTVSS
0.507 OD | TIGIT-SC177 (Fc fusion, VHH-Fc) VHH: EVQLVESGGGLVQPGGSLRLSCAASGFTFSPSWMGWFRQAPGKEREWVASVLRGGYTWYADSVKGRFTISADNSKNTAYLQMNSLKPEDTAVYYCATDRGPAMVFNLWGQGTLVTVSS
0.626 OD | TIGIT-SC143 (Fc fusion, VHH-Fc) VHH: EVQLVESGGGLVQPGGSLRLSCAASGFTLGYYVMGWFRQAPGKEREFVAAISASGTLRAYADSVEGRFTISADNSKNTAYLQMNSLKPEDTAVYYCARAELGYSYGSVDGYWGQGTLVTVSS

OD (450 nm) | Binder
0.878 OD | TIGIT-SC147 (Fc fusion, VHH-Fc) VHH: EVQLVESGGGLVQPGGSLRLSCAASGTITSAVFMGWFRQAPGKEREFVAAVIWRGGSLKSYADSVKGRFTISADNSKNTAYLQMNSLKPEDTAVYYCAKLAVAGNYYYYGMDVWGQGTLVTVSS
0.591 OD | TIGIT-SC179 (Fc fusion, VHH-Fc) VHH: EVQLVESGGGLVQPGGSLRLSCAASGFTFSPSWMGWFRQAPGKEREWVASVLRGGYTWYADSVKGRFTISADNSKNTAYLQMNSLKPEDTAVYYCASEVASGETDYWGQGTLVTVSS
0.534 OD | TIGIT-SC184 (Fc fusion, VHH-Fc) VHH: EVQLVESGGGLVQPGGSLRLSCAASGFTFSPSWMGWFRQAPGKEREWVASVLRGGYTWYADSVKGRFTISADNSKNTAYLQMNSLKPEDTAVYYCTTDRGYNWNYDWGQGTLVTVSS
0.328 OD | TIGIT-SC166 (Fc fusion, VHH-Fc) VHH: EVQLVESGGGLVQPGGSLRLSCAASGFTFDRSWMGWFRQAPGKEREWVASVLRGGYTWYADSVKGRFTISADNSKNTAYLQMNSLKPEDTAVYYCAREGSGYASDYWGQGTLVTVSS
0.306 OD | TIGIT-SC168 (Fc fusion, VHH-Fc) VHH: EVQLVESGGGLVQPGGSLRLSCAASGFTFDRSWMGWFRQAPGKEREWVASVLRGGYAWYADSVKGRFTISADNSKNTAYLQMSSLKPEDTAVYYCAREGSGYASDYWGQGTLVTVSS
0.328 OD | TIGIT-SC163 (Fc fusion, VHH-Fc) VHH: EVQLVESGGGLVQPGGSLRLSCAASGFTFDRSWMGWFRQAPGKEREWVASVLRGGYTWYADSVKGRFTISADNSKNTAYLQMNSLKPEDTAVYYCATDKRGPHPDYWGQGTLVTVSS
0.494 OD | TIGIT-SC178 (Fc fusion, VHH-Fc) VHH: EVQLVESGGGLVQPGGSLRLSCAASGFTLSPSWMGWFRQAPGKEREWVASVLRGGYTWYADSVKGRFTISADNSKNTAYLQMNSLKPEDTAVYYCASEVASGETDYWGQGTLVTVSS
0.607 OD | TIGIT-SC182 (Fc fusion, VHH-Fc) VHH: EVQLVESGGGLVQPGGSLRLSCAASGFTFSSSSMGWFRQAPGKEREFVAAINWSGGSTSYADSVKGRFTISADNSKNTAYLQMNSPKPEDTAVYYCAKDRSYSFDYWGQGTLVTVSS
0.472 OD | TIGIT-SC158 (Fc fusion, VHH-Fc) VHH: EVQLVESGGGLVQPGGSLRLSCAASGFTFSPSWMGWFRQAPGKEREWVASVLRGGYTWYADSVKGRFTISADNSKNTAYLQMNSLKPEDTAVYYCAREGRSSSPWFDPWGQGTLVTVSS
0.449 OD | TIGIT-SC155 (Fc fusion, VHH-Fc) VHH: EVQLVESGGGLVQPGGSLRLSCAASGNTFSGGFMGWFRQAPGKEREWVASVLRGGYTWYADSVKGRFTISADNSKNTAYLQMNSLKPEDTAVYYCAGDYRGFEMAFDPWGQGTLVTVSS
0.749 OD | TIGIT-SC159 (Fc fusion, VHH-Fc) VHH: EVQLVESGGGLVQPGGSLRLSCAASGFTFDRSWMGWFRQAPGKEREWVASVLRGGYTWYADSVKGRFTISADNSKNTAYLQMNSLKPEDTAVYYCAREGRSSSPWFDPWGQGTLVTVSS
0.545 OD | TIGIT-SC202 (Fc fusion, VHH-Fc) VHH: EVQLVESGGGLVQPGGSLRLSCAASGFTFSPSWMGWFRQAPGKEREWVASVLRGGYTWYADSVKGRFTISADNSKNTAYLQMNSLKPEDTAVYYCTTDGGYSGIVGFAWGQGTLVTVSS
0.467 OD | TIGIT-SC160 (Fc fusion, VHH-Fc) VHH: EVQLVESGGGLVQPGGSLRLSCAASGNTFSGGFMGWFRQAPGKEREWVASVLRGGYTWYADSVKGRFTISADNSKNTAYLQMNSLKPEDTAVYYCAREGRSSSPWFDPWGQGTLVTVSS
0.465 OD | TIGIT-SC154 (Fc fusion, VHH-Fc) VHH: EVQLVESGGGLVQPGGSLRLSCAASGFAFSSDWMGWFRQAPGKEREWVASVLRGGYTWYADSVKGRFTISADNSKNTAYLQMNSLKPEDTAVYYCAGDYRGFEMAFDPWGQGTLVTVSS
0.576 OD | TIGIT-SC186 (Fc fusion, VHH-Fc) VHH: EVQLVESGGGLVQPGGSLRLSCAASGNTFSGGFMGWFRQAPGKEREYVASVLRGGYTWYADSVKGRFTISADNSKNTTYLQMNSLKPEDTAVYYCTTDRGYNWNYDWGQGTLVTVSS
0.432 OD | TIGIT-SC145 (Fc fusion, VHH-Fc) VHH: EVQLVESGGGLVQPGGSLRLSCAASGNTFSGGFTLGYYVMGWFRQAPGKEREFVAAISRSGTLKAYADGVKGRFTISADNSKNTAYLQMNSLKPEDTAVYYCARVEAYGDPLGYWGQGTLVTVSS
